From US20150351390A1, “COMPOSITIONS AND METHODS FOR AUXIN-ANALOG CONJUGATION” (PIONEER HI-BRED INTERNATIONAL, INC., priority 2012, published 2015)

B1: AtGH3-15: GH3 protein, accession CAB87144 (protein, listed as Arabidopsis thaliana)
chain: MLPKFDPTNQKACLSLLEDLTTNVKQIQDSVLEAILSRNAQTEYLRGFLNGQVDKQNFKKNVPVVTYEDIRSYIDRIANGEPSDLICDRPISVLLTSSGTSGGVPKLIPLTTEDLEQRISFSSLYAPLLYKHIDGLSEGKSLIFYFVTRESKTANGDSLQVSPHAITTCADTTQSMYCQLLCGLLERDNVARLGAPFASSFLKVIKFLEDHWPELCSNIRTGRLSDWITDATCTSGIGKFLTAPNPELASLIEQECSKTSWEAILKRLWPKAKCIESIITGTMAQYIPLLEFYSGGLPLTSSFYGSSECFMGVNFNPLCKPSDVSYTIIPCMGYFEFLEVEKDHQEAGHDPTEKPVVVDLVDVKIGHDYEPVVTTFSGLYRYRVGDVLRATGFYNNAPHFCFVGRQKVVLSIDMDKTYEDDLLKAVTNAKLLLEPHDLMLMDFTSRVDSSSFPGHYVIYWELGSKVKDAKFEPNRDVMEECCFTVEESLDAVYRKGRKNDKNIGPLEIKVVKPGAFDELMNFFLSRGSSVSQYKTPRSVTNEEALKILEANVISEFLSRKIPSWELHELHSGR
B2: AIGH3-7 (protein, listed as Arabidopsis lyrata)
chain: VLEDLTSNVTQLQDNEILTLNANTNYLQSFFRGRFDKEIFKKNVPVVTYDDPSNVISAQPITGFVLSSGTSGGAQKMMPWNEKYLDSCMIFGCINVKNVEKGKAMMFYFTKLESITPSGLPARVASSSYLKSNYFKNRPSNWYYTYTSPDELTLCPDNKQNLYCHLLCGLVQRNEVTRMGSIFASVMKELWSNIRSGQLSEWITDIVANTIEKICNQKCWKGIVTRLWPKAKYIETIVTGSMVQYVPTLNYYSNDMLPLISTIYASSETQFGLNLNPMCKPEDVSYTFMPNVSYFEFIPVDGDKNNVVDLADVKLGCSYEAVVTNFRIRVGDILVVTGFHNKAPQFRFIRRDNVVLSIDLDKTNEDDLFKAVNRGKLTLDSSDLMLAMLISPLSRDKNKDKKSKKHIELKQETFSECCLLMEDSLDEVYKNCRFKEEWTFDSLMDFFISQGASIGQYKTPRCIKSAKALEVIEKMW
B3: VvGH3-6: GH3 protein, accession XP_002268278 (protein, listed as Vitis vinifera)
chain: MLLSCDPHDNEAGLMLLEDLTTNANQVQLEVLEEILTQNANTEYLRGYLDGHSDKGLFKKKVPIVNYEDIKPHIERIANGEPSRIISAQPITELLTSSGTSGGQPKLMPSTAEDLDRKTFFYNLLIPVMNKYVDGLDQGKGMYLLFIKPEISTPSGLMARPVLTSYYKSSNFRNRPFNPFNVYTSPDETILCLDSKQSMYCQLLCGLVQRDEVLRVGAVFASAFLRAIKFLEDHWRELCSNIRTGCVSDWITDPSCRNAVSSFLSKPQPDLADFIEFECNGESWEGIIKRLWPRTKYIEVIVTGSMAQYIPTLEFYSGGLPLVSTMYASSECYYGINLKPLSKPSDVSYTLLPNMAYFEFLPVQKNNGEVTQQVQCNGGCIKKEGERVEIEVVGLVDVKVGHYYELVVTTFTGLYRYRTGDILMVTGFYNNAPQFRFVQRRNVVLSIDTDKTNEEDLLKAVTQAKLLLEPYGFLLTEYTSYADTSSIPGHYVLFWELKTRGNNDLSEPDHTIMEQCCSTVEESLDSVYRRCRRRDNSIGPLEIRIVKPGTFDALMDFCVSQGSSVNQYKTPRCIKSKEAIKILDSRVVGKVFSKKVPFWEPFKMETK
B4: AIGH3-12 (protein, listed as Arabidopsis lyrata)
chain: MKPISDINESFEKQLKYLTSDVKQIQDNLLEEIITPNTKTEYLQRFLIGRFDKDLFKKNVPIVTYEDIKPYLDRVVNGESSDVISARPITGFLLSSGTSGGAQKMMPWNNKYLDNLTFIYDLRMQVITKHVKGVEEGKGMMFLFTKQESMTPSGLPARVATSSYFKSDYFKHRPSNWYYSYTSPDEVILCPNNTQSLYCHLLCGLVQRDEVVRTGSIFASVMVRAIEVLKNSWEELCSNIRSGHLSNWVTDLGCQSSVSLVLGGPRPELADTIEEICNQKSWKGIVKRLWPNTKYIETVVTGSMGQYVPMLNYYCNDLPLVSTTYGSSETTFGINLDPLCKPEDVSYTFMPNMSYFEFIPMDGDNNDVVDLEDVKLGCTYEPVVTNFAGLYRMRVGDIVLVTGFYNNAPQFKFVRRENVVLSIDSDKTNEEDLFKAVSQAKLVLESSGLDLKDFTSYADTSTFPGHYVVYLEVDTKEGEEKKTAQFELDEEALSMCCLVMEESLDNVYKRCRFKDGSIGPLEIRVVRQGTFISLMDFFISQGASTGQYKTPRCIKSGKALQVLETCVVAKFFSS
B5: VvGH3-4: GH3 protein, accession XP_002263353 (protein, listed as Vitis vinifera)
chain: MEGKRLEYRGEEALKELEKFTAKADEVQENILKEIIARNCETEYLKKYMGGSKDVLEFKQSVPVITYKDIHPYIQRIANGEDSSLISGHPITEMLCSSGTSGGEPKMMPSIAEDLNRRTFLYNLIMPIMNQYIPGLDEGKAMFLYFVKAEMSTPCGLPARAVLTSYYKSKNFRCRVRDAFNDFTSPDQAILCTDSNQSMYCQLLAGLVHRHQVLRLGAVFASALLRAISFLERHWVHLCNDIRTGHLDSSITDPECRSSMSTILSSPNPHLADEIEEICSHPSWKGMLSQLWPRAKYIEAVITGSMAQYIPSLEYYSGGKLPLVCTMYASSECYFGVNMKPLCDPADVAFTLLPNMCYFEFIPLGENGTLLMDMDEEKGVPKEKLVDLVHVRLGCYYELVVTTFAGLNRYRIGDVLQVTGFHNRAPQFRFICRRNVVLSIDNDKTNEEDLHRSITMAKKLLEPYNALLVEYTSYADTSSLPGHYVLYWEITHCISTDSPSTPLDSKVLEECCIAVEEELDYIYRRCRTHDKSVGPLEIRLVQPGTFEDLMDLFISQGGSINQYKTPRCIKSSNALKLLNSNVEASFFSPRDPRWIP
B6: OsGH3-6: GH3 protein, accession Q60EY1 (protein, listed as Oryza sativa)
chain: MAATAWGIRSSGIRGASPVMSACVSPAEVILGADHQQQMYCHLLCGLRRWDAVDCIRAPYAAALARALRLLQSKWRQLCDDLECGTVCADVVTDAAMRGAVQDGVLAGPCPELAGRVRRICERDDWRGVLRQLWPDARYISCVTTGTMEQYFPAIKHFAGEALPVLGTDYLASECAIGINLERTSPPEETTYVLLPRAAYFEFIPFDMDAAGRGAAAAEPVDIAGVEAGKTYELVATTFRGLYRYKVGDVVKIAGFHHSSPRLQFVTRAPPPQEHGEVLTERDVMAAMDTFQLMLKDGGEVIEFAAFIIDGDGGQRRRRCATIAVEVSNGSKLLDHERSAAFLRRCTAPLEGCLGGAYRLSRATGDVAPLEVAVVRPGTFDRLAEAAIRGGAPANQYKPPRSSGTGTSSMCCNPPWCAAAAQSLNQLLTSICLIVSLNQRQFLDRESNSGTDKVFISDSILNFQHWGGFSLRFDLQEESLTLYKDHPS

Columns and labels:
[1] = LC-MS assay of GH3 conjugation of IAA with Asp or Glu; type: biochemical; settings: for kcat (hrs−1) IAA-Asp: conjugation of IAA with Asp by recombinant GH3 protein, IAA-Asp product by LC-MS; for kcat (hrs−1) IAA-Glu: conjugation of IAA with Glu by recombinant GH3 protein, IAA-Glu product by LC-MS
Summary of the method: (§1)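 Kinetic parameters come from Michaelis-Menten fits of initial velocities. Velocities reflect LC-MS quantification, against standards, of Asp or Glu conjugates formed by purified GH3 (44 to 164 μg/mL) with 5 mM ATP and MgCl2 at pH 8.0, 30° C.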

[2] = LC-MS assay of GH3 conjugation of 2,4-D with Asp or Glu; type: biochemical; settings: 5 mM 2,4-D substrate; for kcat (hrs−1) 2,4-D-Asp: conjugation of 2,4-D with Asp by recombinant GH3 protein, 2,4-D-Asp product by LC-MS; for kcat (hrs−1) 2,4-D-Glu: conjugation of 2,4-D with Glu by recombinant GH3 protein, 2,4-D-Glu product by LC-MS
Summary of the method: as §1

Molecule	kcat (hrs−1) IAA-Asp [1] [h⁻¹]	kcat (hrs−1) IAA-Glu [1] [h⁻¹]	kcat (hrs−1) 2,4-D-Asp [2] [h⁻¹]	kcat (hrs−1) 2,4-D-Glu [2] [h⁻¹]
B1	0.000	0.000	0.000	0.000
B2	0.000	0.000	0.000	0.000
B3	111.443	505.272	0.385	1.204
B4	0.000	12.925	0.006	0.057
B5	3.873	16.309	0.000	0.018
B6	0.000	0.000	0.000	0.000
